# Test results as given in US20220202899A1, “COMPOSITION FOR PREVENTION OR TREATMENT OF HAIR LOSS INCLUDING HAPLN1” (HAPLNSCIENCE INC., priority 2019, published 2022).
# System: TβRII
# Assay: TβRII protein in human hair germinal matrix cells deficient in endogenous HA (4-MU)
# Type: cell-based
# Details: 4-MU-treated cells; HAPLN1 25 ng/mL; TGF-β2 2 ng/mL
# Protocol: 4-MU (4-methylumbelliferone) is an inhibitor of HA-producing hyaluronan synthase 2 (HAS2), which produces HA. In order to confirm the effect of HA produced in cells, HA production in cells was inhibited using 4-MU.
# The human hair germinal matrix cells, in which the endogenous HA was inhibited by treating 4-MU, were dispensed into a poly-D-lysine 6-well plate at a concentration of 5.0×10^4 per well and cultured for 24 hours. After 24 hours, the medium was removed and replaced with a new serum-free medium. HAPLN1 was treated with 25 ng/mL, and after 1 hour, TGF-β2 (2 ng/mL) was treated. After 23 hours, cells were collected, a lysis buffer (25 mM Tris-HCl, 1 mM EDTA, 0.1% Triton-X100, phosphatase inhibitor, and protease inhibitor) was added, and all the cells were broken through sonication. HAS2 and TβRII in the sample were measured using Western blotting. The optical density of each of HAS2 and TβRII was compared to that of GAPDH using a densitometer.
molecule,measurement,value
"hyaluronan and proteoglycan link protein 1 (protein, UniProt P10915 16-354, looked up, extracellular matrix protein found in cartilage; stabilizes aggregates of hyaluronic acid and proteoglycans) Hyaluronan and proteoglycan …: DHLSDNYTLDHDRAIHIQAENGPHLLVEAEQAKVFSHRGGNVTLPCKFYRDPTAFGSGIHKIRIKWTKLTSDYLKEVDVFVSMGYHKKTYGGYQGRVFLKGGSDSDASLVITDLTLEDYGRYKCEVIEGLEDDTVVVALDLQGVVFPYFPRLGRYNLNFHEAQQACLDQDAVIASFDQLYDAWRGGLDWCNAGWLSDGSVQYPITKPREPCGGQNTVPGVRNYGFWDKDKSRYDVFCFTSNFNGRFYYLIHPTKLTYDEAVQACLNDGAQIAKVGQIFAAWKILGYDRCDAGWLADGSVRYPISRPRRRCSPTEAAVRFVGFPDKKHKLYGVYCFRAYN",TβRII level,recovered
